The subject of data set [1] is DH10B E. coli cells. In words: Promoter activity: constitutive GFP reporter expression without AtzR. The note with it: for transcriptional activity compared with WT promoter, measured by reporter expression: E. coli, promoter only, no AtzR; for GFP reporter expression of cells carrying only the promoter: no AtzR present, rich and minimal media. It is filed as cell-based. On the procedure:
Fluorescence measurement: To measure promoter activities, transformed reporter plasmids (including WT promoter plasmid) were transformed into DH10B cells (NEB) using electroporation and plated cells on LB agar plates with kanamycin (50 ug/mL). After overnight growth at 37° C., at least 3 individual colonies were selected for each reporter plasmid and inoculated into 150 μL LB medium with 50 μg/mL kanamycin in a 96-well plate. After 3 hours of growth at 37° C. in a multi-plate shaker (1100 rpm, Southwest Science), cells were diluted 1:50 into 150 μL LB medium or MOPS medium (supplemented with 0.4% glucose and 1× BME vitamin) with 50 μg/mL kanamycin in a 96-well plate. Cells were grown at 37° C. with shaking (1100 rpm). After 16 hours, OD600 and fluorescence (excitation at 488 nm and emission at 520 nm with a gain of 40) of each well was measured using a multi-well plate reader (Synergy HTX, BioTek .Inc). Fluorescence was normalized against OD600. Blank (normalized fluorescence of cells carrying no GFP) was subtracted from those measurements. Mean and standard deviation of each reporter plasmid activity were calculated from measurements of 3 biological replicates.

Data set [2] has as its system AtzR. In words: Fold induction of GFP reporter by cyanuric acid with co-expressed AtzR. It is filed as cell-based. The note with it: for increase in reporter expression in response to cyanuric acid: E. coli, medium not stated; for response to cyanuric acid (inducibility) / fold activation (ratio of GFP with and without cyanuric acid): 200 μM cyanuric acid; for response to cyanuric acid (inducibility) / uninduced baseline (no cyanuric acid): AtzR co-expressed. As for the experimental part:
(§1) To measure fold repression, each reporter plasmid was co-transformed with low and high copy sensor plasmid separately. The end results include two test versions for each reporter plasmid: (the reporter plasmid, low copy sensor plasmid), (the reporter, high copy sensor plasmid), reporter plasmids were transformed with either of the sensor plasmids. Similar to the process of measuring promoter activity, the activities of at least 3 biological replicates were measured for each reporter and sensor plasmid pair. The only difference was that 50 μg/mL kanamycin and […] Spectinomycin were used to maintain both of the reporter and sensor plasmids. The fold repression was calculated as a ratio of the fluorescence of reporter divided by the fluorescence of this reporter when it was paired with a sensor plasmid. To measure fold induction, the process of obtaining fold repression was followed. The only difference was the addition of 200 μM cyanuric acid during the growth. The fold induction was calculated as a ratio of the fluorescence of the induced state divided by the fluorescence of the repressed state.

Data set [3] concerns AtzR. In words: Cyanuric acid dose response and visual detection limit of the AtzR biosensor. It is filed as cell-based, E. coli DH10B. The note with it: for cyanuric acid concentration at which signal begins to saturate: rich and minimal media (125 ppm). On the procedure: To obtain transfer functions of various reporter and sensor plasmid pairs, different concentrations of cyanuric acid were delivered via DMSO to cultures (less than 1% of the total volume). After growth for 16 hours, fluorescence was measured and normalized similar to previous experiments.
Visual detection limit: To determine the visual detection limit in LB and MOPS media, E. coli DH10B with or without constitutive GFP expression was grown in LB with appropriate antibiotics for 16 hours in […] on a shaker(1100 rpm). Two 2 mL aliquots from each culture were spun down at 5000 G for 5 minutes in a benchtop centrifuge at room temperature. The media was aspirated out and the cell pellets resuspended in either 2 mL LB or 2 mL MOPS media. The spin-down and resuspension procedure was repeated two more times. Then, cells without GFP in LB (or MOPS) were mixed with cells carrying GFP in LB (or MOPS) to 150 μL with various ratios (cells without GFP-cells with GFP: 100%-0%, 95%-5%, 90%-10%, 85%-15%, 70%-30%, 55%-45%, 30%-70%, 0%-100%). After measuring the fluorescence and OD600 of the mixed cultures in a 96-well plate, the cultures were transferred to ultra-thin strip tubes ordered by increasing percentage of cells carrying GFP. Five individuals were asked to identify the culture that they could be confident to tell apart (in terms of the color of the culture) from the culture containing no cells with GFP (100%-0%). The identification process for cultures in LB and MOPS was performed by placing culture tubes in front a piece of white paper. The weighted average of fluorescence of cultures was identified by five individuals for cultures in LB and MOPS. The calculated weights averages were defined and used as the visual detection limits in FIGS. 7-10 related experiments.

Data set [4] relates to AtzR. Put plainly: Fold repression of GFP reporter by co-expressed AtzR. The note with it: minimal medium. It is filed as cell-based. As for the experimental part: as §1

AtzR, sequence (as listed by the source): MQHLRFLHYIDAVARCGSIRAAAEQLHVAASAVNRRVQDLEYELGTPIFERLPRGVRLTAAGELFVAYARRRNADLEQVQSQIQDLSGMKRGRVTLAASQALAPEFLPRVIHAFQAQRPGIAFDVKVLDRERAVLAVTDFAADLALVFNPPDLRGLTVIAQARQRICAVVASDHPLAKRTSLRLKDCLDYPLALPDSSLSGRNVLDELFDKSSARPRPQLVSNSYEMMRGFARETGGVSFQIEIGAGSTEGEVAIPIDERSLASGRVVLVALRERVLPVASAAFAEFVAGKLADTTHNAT

With “Promoter 13: group 2 promoter variant; apFAB spacer replaced with RBS in R-L orientation (DNA TTGACAGGTGCCGATCCGGCACCTATAATAGATTCATGATGA; expressed or natural sequence)”, the “transcriptional activity compared with WT promoter, measured by reporter expression” value in data set [1] is “transcriptionally more active than WT promoter”. The “increase in reporter expression in response to cyanuric acid” value (shortened to “increase in reporter expression”) in data set [2] is recorded as “greater than two-fold increase”.

For “Promoter 12: group 2 promoter variant, sequence SEQ ID NO: 14 (DNA GGTGCCGACACGGCACCTTTTTGTACCTATAATAGATTCATGATGA; expressed or natural sequence)”, the “transcriptional activity compared with WT promoter, measured by reporter expression” value in data set [1] was “transcriptionally more active than WT promoter”.

Take “Promoter 15: group 2 promoter variant; RBS placed upstream of -35 (DNA GGTGCCGATCCGGCACCTTGACATCGCATCTTTTTGTACCTATAATAGATTCATGATGA; expressed or natural sequence)”: in data set [1], the “transcriptional activity compared with WT promoter, measured by reporter expression” value is reported as “transcriptionally more active than WT promoter”. The “lower threshold of detection of cyanuric acid” value (“lower threshold” for short) in data set [3] (minimal media) was around 15 µM; in data set [3] (rich media), around 25 µM. In addition, the “cyanuric acid concentration at which signal begins to saturate” value (“cyanuric acid concentration” for short) in data set [3] was found to be 1 mM.

Turning to “Promoter 16: group 2 promoter variant, sequence SEQ ID NO: 18 (DNA GGTGCCGATCCGGCACCTTTTTGTACCTATAATAGATTCATGATGA; expressed or natural sequence)”, the “transcriptional activity compared with WT promoter, measured by reporter expression” value in data set [1] was “transcriptionally more active than WT promoter”.

As to “Promoter 10: group 2 promoter variant; apFAB spacer replaced with RBS L and R (DNA TTGACAGGTGCCGGATCGGCACCTATAATAGATTCATGATGA; expressed or natural sequence)”, the “transcriptional activity compared with WT promoter, measured by reporter expression” value in data set [1] was “transcriptionally more active than WT promoter”. In addition, in data set [4], the “fold repression (ratio of GFP expression without and with AtzR)” value was 50 fold. For the same molecule, in data set [2], the “response to cyanuric acid (inducibility)” value is on record as “lack of cyanuric acid response” and the “increase in reporter expression” value is “greater than two-fold increase”.

B1: Promoter 2: group 1 promoter variant; sequence 3' of ABS 3 replaced with corresponding region of apFab71 (nucleic acid)
DNA: TCGGTGCCGGATCGGCACCAGTTAGGTCGGAAAAAGGCGGCAGTCAAGTGCGCTTTTTGTACCTATAATAGATTCATGATGA
modifications: expressed or natural sequence
Turning to B1, the “transcriptional activity compared with WT promoter, measured by reporter expression” value in data set [1] is listed as “transcriptionally more active than WT promoter”. Further, in data set [2], the “response to cyanuric acid (inducibility)” value was “inducible”, the “increase in reporter expression” value is reported as “greater than two-fold increase” and the “uninduced baseline (no cyanuric acid)” value is listed as “about 4000 fluorescence units”. Moreover, the “fold activation (ratio of GFP with and without cyanuric acid)” value in data set [2] (medium not specified) is reported as “approximately 10 fold”. In data set [2] (minimal media), the “fold activation (ratio of GFP with and without cyanuric acid)” value is 15 fold. Besides, the “lower threshold” value in data set [3] (minimal media) was around 15 µM. The “cyanuric acid concentration” value in data set [3] is listed as 1 mM. For the same molecule, the “lower threshold” value in data set [3] (rich media) was around 25 µM.

B2: Promoter 6: group 1 promoter variant with consensus E. coli -35 and apFab71 3' sequence, on a low-copy number plasmid (nucleic acid)
DNA: TCGGTGCCGGATCGGCACCAGTTAGGTCGGAAAAAGGCGGCAGACAAGTGCGCTTTTTGTACCTATAATAGATTCATGATGA
Turning to B2, the “transcriptional activity compared with WT promoter, measured by reporter expression” value in data set [1] was “transcriptionally more active than WT promoter”. Also, in data set [4], the “fold repression (ratio of GFP expression without and with AtzR)” value is on record as 10 fold. The “fold activation (ratio of GFP with and without cyanuric acid)” value in data set [2] (medium not specified) is “approximately 10 fold”. The “increase in reporter expression” value in data set [2] was “greater than two-fold increase”.

B3: Promoter 5: group 1 promoter variant with consensus E. coli -35 and apFab71 3' sequence, on a high-copy number plasmid (nucleic acid)
DNA: TCGGTGCCGGATCGGCACCAGTTAGGTCGGAAAAAGGCGGCAGACAAGTGCGCTTTTTGTACCTATAATAGATTCATGATGA
On to B3, for which the “transcriptional activity compared with WT promoter, measured by reporter expression” value in data set [1] is reported as “transcriptionally more active than WT promoter”. Further, in data set [2] (medium not specified), the “fold activation (ratio of GFP with and without cyanuric acid)” value is “approximately 10 fold”. Besides, in data set [2], the “increase in reporter expression” value was “greater than two-fold increase” and the “uninduced baseline (no cyanuric acid)” value worked out at 22000 fluorescence units.

B4: Promoter 14: group 2 promoter variant, sequence SEQ ID NO: 16 (nucleic acid)
DNA: GACCTAACTGGTGCCGATCCGGCACCGATCTTGTTGACATCGCATCTTTTTGTACCTATAATAGATTCATGATGA
modifications: expressed or natural sequence
For the molecule B4, in data set [1], the “transcriptional activity compared with WT promoter, measured by reporter expression” value is recorded as “transcriptionally more active than WT promoter”.

B5: Promoter 7: group 1 promoter variant of presumed intermediate strength, -35 site mutated toward E. coli consensus (nucleic acid)
DNA: TCGGTGCCGGATCGGCACCAGTTAGGTCGGAAAAAGGCGGCAGACAAGTGCGCTTTTTGTACCTATATAGATTCATGATGA
modifications: expressed or natural sequence
Regarding B5, in data set [1], the “transcriptional activity compared with WT promoter, measured by reporter expression” value is “transcriptionally more active than WT promoter” and the “GFP reporter expression of cells carrying only the promoter” value is recorded as “highest expression”.

B6: Promoter 4: group 1 promoter variant weakened by deleting a single base from the -10 site (nucleic acid)
DNA: TCGGTGCCGGATCGGCACCAGTTAGGTCGGAAAAAGGCGGCAGTCAAGTGCGCTTTTTGTACCTATAAAGATTCATGATGA
modifications: expressed or natural sequence
Consider B6, for which the “response to cyanuric acid (inducibility)” value in data set [2] was “only promoter variant 2 was inducible”.

B7: Promoter 3: group 1 promoter variant weakened by deleting a single base from the -10 site (nucleic acid)
DNA: TCGGTGCCGGATCGGCACCAGTTAGGTCGGAAAAAGGCGGCAGTCAAGTGCGCTTTTTGTACCTATATAGATTCATGATGA
modifications: expressed or natural sequence
Turning to B7, in data set [2], the “response to cyanuric acid (inducibility)” value was “only promoter variant 2 was inducible”.

B8: Promoter 8: group 1 promoter variant of presumed intermediate strength, -35 site mutated toward E. coli consensus (nucleic acid)
DNA: TCGGTGCCGGATCGGCACCAGTTAGGTCGGAAAAAGGCGGCAGACAAGTGCGCTTTTTGTACCTATAAAGATTCATGATGA
modifications: expressed or natural sequence
With B8, in data set [1], the “transcriptional activity compared with WT promoter, measured by reporter expression” value is listed as “transcriptionally more active than WT promoter” and the “GFP reporter expression of cells carrying only the promoter” value was “highest expression”. Further, the “increase in reporter expression” value in data set [2] is given as “greater than two-fold increase”.

B9: Promoter 11: group 2 promoter variant; RBS placed upstream of -35 (nucleic acid)
DNA: CAAGATCGGTGCCGGATCGGCACCAGTTAGGTCTTGACATCGCATCTTTTTGTACCTATAATAGATTCATGATGA
modifications: expressed or natural sequence
B9: in data set [1], the “transcriptional activity compared with WT promoter, measured by reporter expression” value is “transcriptionally more active than WT promoter”.

B10: Promoter 1: group 1 promoter variant; Pseudomonas -10 site replaced with consensus E. coli -10 site (nucleic acid)
DNA: ATGCGAGTCAAAGCAAGATCGGTGCCGGATCGGCACCAGTTAGGTCGGAAAAAGGCGGCAGTCAAGTGCGCAGGGCGGCGTTATAATTGAACGAA
modifications: expressed or natural sequence
notes: group 1 promoter variant; Pseudomonas -10 site replaced with consensus E. coli -10 site
As for B10, the “transcriptional activity compared with WT promoter, measured by reporter expression” value in data set [1] is “transcriptionally more active than WT promoter”. The “lower threshold” value in data set [3] (minimal media) was around 15 µM; in data set [3] (rich media), around 25 µM. Further, the “cyanuric acid concentration” value in data set [3] is on record as 1 mM.

The record behind these values is patent US20200239927A1, “SENSOR FOR CYANURIC ACID DETECTION” (WISCONSIN ALUMNI RESEARCH FOUNDATION, priority 2019, published 2020).
